Measurements reported in US12085574B2, “Method and means for diagnosing and treating allergy” (BIOMEDICAL INTERNATIONAL R+D GMBH, priority 2014, dated 2024).

B1: apo-Alt a 1: recombinant Alternaria alternata allergen Alt a 1, dialyzed against DFO, iron-free (protein, UniProt P79085 19-157, looked up)
Major allergen Alt a 1: APLESRQDTASCPVTTEGDYVWKISEFYGRKPEGTYYNSLGFNIKATNGGTLDFTCSAQADKLEDHKWYSCGENSFMDFSFDSDRSGLLLKQKVSDDITYVATATLPNYCRAGGNGPKDFVCQGVADAYITLVTLPKSS
B2: holo-Alt a 1: recombinant Alt a 1 incubated with equimolar iron and three-fold molar catechol (protein, UniProt P79085 19-157, looked up)
Major allergen Alt a 1: B1 Major allergen Alt a 1
modifications: iron and catechol bound
notes: recombinant Alt a 1 incubated with equimolar iron and three-fold molar catechol
B3: apoBetv1: recombinant Bet v 1a birch allergen, used as purchased, without siderophore-iron (protein, UniProt P15494 2-160, looked up)
Major pollen allergen Bet v …: GVFNYETETTSVIPAARLFKAFILDGDNLFPKVAPQAISSVENIEGNGGPGTIKKISFPEGFPFKYVKDRVDEVDHTNFKYNYSVIEGGPIGDTLEKISNEIKIVATPDGGSILKISNKYHTKGDHEVKAEQVKASKEMGETLLRAVESYLLAHSDAYN
B4: holoBetv1: recombinant Bet v 1a incubated with equimolar iron and three-fold molar catechol (protein, UniProt P15494 2-160, looked up)
Major pollen allergen Bet v …: B3 Major pollen allergen Bet v …
modifications: iron and catechol complex
notes: recombinant Bet v 1a incubated with equimolar iron and three-fold molar catechol

Assays:
[1] = Iron-binding capacity of lipocalin allergens (quenching of autofluorescence); conditions: 2 μM allergen, 50UM siderophore (2,3, Dihydroxybenzoic Acid), iron III 0 to 50 μM; excitation/emission 280 and 340
Description: In this assay, 2 μM of allergen (in the example BLG) and 50UM of siderophores like 2,3, Dihydroxybenzoic Acid are incubated with increasing concentrations of iron III (Fe3+) ranging from 0 to 50 μM (x-axis in FIG. 5). Quenching of autofluorescence is measured at excitation and emission wavelengths of […] respectively in endpoint mode (y-axis in FIG. 5).

[2] = test system: PMA-activated PBMCs; experiment: Cytokine content (IL13, IFN-γ) of supernatants of PMA-activated PBMCs stimulated with apo-/holo-allergens (ELISA); assay type: cell-based, human; conditions: PMA-activated PBMCs incubated for 18-24h; allergen 100 μg/ml with or without 10 μM catechol and 10 μM iron
Description: (§1) To PBMCs (0.5 Mio/test) a final concentration of 0.75 ng/ml PMA, 100 μg/ml apo-allergen (BLG, Alt a 1 and Bet v 1) with or without 10 μM catechol (Sigma) and 10 μM iron was added. For control purposes also tested without allergen or PMA. PMA each substance was determined in pre-experiments and considered concentration was optimal when cells were slightly downregulating surface CD4+ expression (7). After 18-24h supernatants were collected and stored at −80° ° C. until further analysis.
LCN2 and the cytokine levels of IL13 and IFNγ were detected with commercially available kits according to the manufacturers' protocol. Sera were diluted 1:100 before determining LCN2-levels, whereas supernatants of 18-24h stimulation were used undiluted. Sensitivity of LCN2 assay is about 75 pg/ml and kits were purchased from R&D Systems (Minneapolis, MN, USA), whereas ELISAs for human IL13 and IFNγ were from ebioscience (Santa Clara, CA, USA), both assays having a reported sensitivity of 4 pg/ml.

[3] = test system: CD3+ cells of PMA-activated PBMCs; experiment: CD4/CD8 expression and survival of PMA-activated PBMCs incubated with apo- or holo-lipocalin allergens (FACS); assay type: cell-based, human; conditions: PBMCs pre-activated 24 h with PMA 0.75 ng/ml; allergen 100 μg/ml; holo = with catechol and iron; gated for CD3, 10000 CD3 cells recorded
Description: Cells were then stained for CD3-APC, CD8-PE, CD4-PE-CY7, 7AAD and Annexin V-FITC, gated for CD3 and analyzed by a FACS Canto II. Data acquisition was stopped when 10000 CD3 cells were recorded.
Apo-allergens were incubated with equimolar concentration of iron (ammonium iron (III) citrate, Sigma) and three-fold molar concentration of catechol, since 3 catechols are necessary for hexadental binding of iron in the LCN2-pocket against deionized water. Recombinant Bet v1a (Biomay, Vienna, Austria) was used as purchased
Blood was mixed with equal volumes of PBS containing 2% FCS before applying onto 10 ml Ficoll-Paque PLUS (GE Healthcare, Uppsala, Sweden), centrifugation at 400 g for 30 min without brake and washing the cells twice with 0,89% sodium chloride solution. Cells were then diluted to a concentration of 1Mio cells/ml in RPMI medium containing 10% FCS. Throughout the study FCS from the same lot was always used.
as §1, with “After 18-24h supernatants were collected and stored at −80° ° C. until further analysis.” left out

| Molecule | Autofluorescence of the cavity (iron-binding) [1] | Th2-cytokines released upon stimulation (IL13 and IFN-γ analyzed) [2] | CD4 expression and survival [3] |
| --- | --- | --- | --- |
| BLG: commercially available bovine beta-lactoglobulin, lipocalin allergen | quenched |  |  |
| B1 |  | released |  |
| B2 |  | not |  |
| B3 |  | released | increase |
| B4 |  | not | sharp contrast |
